These results are taken from patent US20180071366A1.

Numbered stars: 1 amine (or outer) side, 2 acyl side, 3 side chain; on linkers, the order of the positions; unused ones are H or OH. Bridge positions count the residues as written; N and C are the ends. Square brackets hold non-standard residues; d marks the D form. * marks the point of attachment. C20 diacid = O=C(O)CCCCCCCCCCCCCCCCCCC(=O)*; γGlu = O=C(O)[C@H](CCC(=O)[*:2])N[*:1]; Hyp = O=C(O)[C@@H]1C[C@@H](O)CN1; NMeI = CC[C@H](C)[C@H](NC)C(=O)O; Dab = NCC[C@H](N)C(=O)O; Sar = CNCC(=O)O

In assay [1] the target is recombinant human amylin 3 receptor (hAMYR3) (human), P30988. Description: cell-based or functional assay.
The target of assay [2] is recombinant human calcitonin receptor (hCT-R) (human), P30988. Description: cell-based or functional assay.
recombinant human calcitonin receptor (hCT-R) (human), P30988, sequence (P30988 25-474): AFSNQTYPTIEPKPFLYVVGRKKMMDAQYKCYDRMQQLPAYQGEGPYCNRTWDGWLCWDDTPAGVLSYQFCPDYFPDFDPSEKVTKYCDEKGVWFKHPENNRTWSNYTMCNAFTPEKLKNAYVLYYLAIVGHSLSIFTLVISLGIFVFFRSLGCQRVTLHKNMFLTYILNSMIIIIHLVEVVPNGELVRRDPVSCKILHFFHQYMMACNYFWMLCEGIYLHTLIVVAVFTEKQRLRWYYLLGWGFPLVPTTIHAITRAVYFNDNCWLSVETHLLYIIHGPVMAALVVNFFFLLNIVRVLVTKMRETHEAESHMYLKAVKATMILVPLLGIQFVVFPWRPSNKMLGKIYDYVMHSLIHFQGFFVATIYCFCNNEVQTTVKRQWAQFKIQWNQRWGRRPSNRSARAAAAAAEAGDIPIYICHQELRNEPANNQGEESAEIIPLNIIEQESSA

recombinant human amylin 3 receptor (hAMYR3) (human), P30988, sequence (P30988 25-474, chain 1 of 2): as the sequence (P30988 25-474) above
recombinant human amylin 3 receptor (hAMYR3) (human), P30988, sequence (O60896 24-148, chain 2 of 2, further chain): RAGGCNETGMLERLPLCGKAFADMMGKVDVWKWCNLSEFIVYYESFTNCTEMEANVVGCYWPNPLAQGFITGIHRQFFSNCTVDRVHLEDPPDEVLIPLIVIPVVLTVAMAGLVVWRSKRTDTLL

B1: Compound 14 (peptide)
peptide: {C20 diacid-γGlu}-RDGTASKATERLAHFLQRSSF[Sar]A[NMeI]LSSTEVGSNT[Hyp]-NH2
modifications: lactam 2-7
SMILES: CC[C@H](C)[C@@H](C(=O)N[C@@H](CC(C)C)C(=O)N[C@@H](CO)C(=O)N[C@@H](CO)C(=O)N[C@H](C(=O)N[C@@H](CCC(=O)O)C(=O)N[C@H](C(=O)NCC(=O)N[C@@H](CO)C(=O)N[C@@H](CC(N)=O)C(=O)N[C@H](C(=O)N1C[C@H](O)C[C@H]1C(N)=O)[C@@H](C)O)C(C)C)[C@@H](C)O)N(C)C(=O)[C@H](C)NC(=O)CN(C)C(=O)[C@H](Cc1ccccc1)NC(=O)[C@H](CO)NC(=O)[C@H](CO)NC(=O)[C@H](CCCNC(=N)N)NC(=O)[C@H](CCC(N)=O)NC(=O)[C@H](CC(C)C)NC(=O)[C@H](Cc1ccccc1)NC(=O)[C@H](Cc1c[nH]cn1)NC(=O)[C@H](C)NC(=O)[C@H](CC(C)C)NC(=O)[C@H](CCCNC(=N)N)NC(=O)[C@H](CCC(=O)O)NC(=O)[C@@H](NC(=O)[C@H](C)NC(=O)[C@@H]1CCCCNC(=O)C[C@H](NC(=O)[C@H](CCCNC(=N)N)NC(=O)CC[C@H](NC(=O)CCCCCCCCCCCCCCCCCCC(=O)O)C(=O)O)C(=O)NCC(=O)N[C@@H]([C@@H](C)O)C(=O)N[C@@H](C)C(=O)N[C@@H](CO)C(=O)N1)[C@@H](C)O
Take B1: the hAMYR3 EC50 [nM] (cAMP formation, 1321N1 cells expressing hAMYR3) in assay [1] turned out to be 0.108 nM. Besides, the hCT-R EC50 [nM] (cAMP formation, 1321N1 cells expressing hCT-R) in assay [2] worked out at 0.386 nM.

B2: Compound 17 (peptide)
peptide: {C20 diacid-γGlu}-RDGTATKATERLAHFLQRSSF[Sar]A[NMeI]PSSTEVGSNT[Hyp]-NH2
modifications: lactam 2-7
SMILES: CC[C@H](C)[C@@H](C(=O)N1CCC[C@H]1C(=O)N[C@@H](CO)C(=O)N[C@@H](CO)C(=O)N[C@H](C(=O)N[C@@H](CCC(=O)O)C(=O)N[C@H](C(=O)NCC(=O)N[C@@H](CO)C(=O)N[C@@H](CC(N)=O)C(=O)N[C@H](C(=O)N1C[C@H](O)C[C@H]1C(N)=O)[C@@H](C)O)C(C)C)[C@@H](C)O)N(C)C(=O)[C@H](C)NC(=O)CN(C)C(=O)[C@H](Cc1ccccc1)NC(=O)[C@H](CO)NC(=O)[C@H](CO)NC(=O)[C@H](CCCNC(=N)N)NC(=O)[C@H](CCC(N)=O)NC(=O)[C@H](CC(C)C)NC(=O)[C@H](Cc1ccccc1)NC(=O)[C@H](Cc1c[nH]cn1)NC(=O)[C@H](C)NC(=O)[C@H](CC(C)C)NC(=O)[C@H](CCCNC(=N)N)NC(=O)[C@H](CCC(=O)O)NC(=O)[C@@H](NC(=O)[C@H](C)NC(=O)[C@@H]1CCCCNC(=O)C[C@H](NC(=O)[C@H](CCCNC(=N)N)NC(=O)CC[C@H](NC(=O)CCCCCCCCCCCCCCCCCCC(=O)O)C(=O)O)C(=O)NCC(=O)N[C@@H]([C@@H](C)O)C(=O)N[C@@H](C)C(=O)N[C@@H]([C@@H](C)O)C(=O)N1)[C@@H](C)O
On to B2, for which the hAMYR3 EC50 [nM] (cAMP formation, 1321N1 cells expressing hAMYR3) in assay [1] turned out to be 0.025 nM. The hCT-R EC50 [nM] (cAMP formation, 1321N1 cells expressing hCT-R) in assay [2] came to 0.058 nM.

B3: Compound 15 (peptide)
peptide: {C20 diacid-γGlu}-RDGTATKATQRLAHFLQRSSF[Sar]A[NMeI]PSSTEVGSNT[Hyp]-NH2
modifications: lactam 2-7
SMILES: CC[C@H](C)[C@@H](C(=O)N1CCC[C@H]1C(=O)N[C@@H](CO)C(=O)N[C@@H](CO)C(=O)N[C@H](C(=O)N[C@@H](CCC(=O)O)C(=O)N[C@H](C(=O)NCC(=O)N[C@@H](CO)C(=O)N[C@@H](CC(N)=O)C(=O)N[C@H](C(=O)N1C[C@H](O)C[C@H]1C(N)=O)[C@@H](C)O)C(C)C)[C@@H](C)O)N(C)C(=O)[C@H](C)NC(=O)CN(C)C(=O)[C@H](Cc1ccccc1)NC(=O)[C@H](CO)NC(=O)[C@H](CO)NC(=O)[C@H](CCCNC(=N)N)NC(=O)[C@H](CCC(N)=O)NC(=O)[C@H](CC(C)C)NC(=O)[C@H](Cc1ccccc1)NC(=O)[C@H](Cc1c[nH]cn1)NC(=O)[C@H](C)NC(=O)[C@H](CC(C)C)NC(=O)[C@H](CCCNC(=N)N)NC(=O)[C@H](CCC(N)=O)NC(=O)[C@@H](NC(=O)[C@H](C)NC(=O)[C@@H]1CCCCNC(=O)C[C@H](NC(=O)[C@H](CCCNC(=N)N)NC(=O)CC[C@H](NC(=O)CCCCCCCCCCCCCCCCCCC(=O)O)C(=O)O)C(=O)NCC(=O)N[C@@H]([C@@H](C)O)C(=O)N[C@@H](C)C(=O)N[C@@H]([C@@H](C)O)C(=O)N1)[C@@H](C)O
Turning to B3, the hAMYR3 EC50 [nM] (cAMP formation, 1321N1 cells expressing hAMYR3) in assay [1] stood at 0.017 nM. In addition, the hCT-R EC50 [nM] (cAMP formation, 1321N1 cells expressing hCT-R) in assay [2] was found to be 0.056 nM.

B4: Compound 16 (peptide)
peptide: {C20 diacid-γGlu}-RDGTATKATQRLAHFLQRSSF[Sar]A[NMeI]LSSTEVGSNT[Hyp]-NH2
modifications: lactam 2-7
SMILES: CC[C@H](C)[C@@H](C(=O)N[C@@H](CC(C)C)C(=O)N[C@@H](CO)C(=O)N[C@@H](CO)C(=O)N[C@H](C(=O)N[C@@H](CCC(=O)O)C(=O)N[C@H](C(=O)NCC(=O)N[C@@H](CO)C(=O)N[C@@H](CC(N)=O)C(=O)N[C@H](C(=O)N1C[C@H](O)C[C@H]1C(N)=O)[C@@H](C)O)C(C)C)[C@@H](C)O)N(C)C(=O)[C@H](C)NC(=O)CN(C)C(=O)[C@H](Cc1ccccc1)NC(=O)[C@H](CO)NC(=O)[C@H](CO)NC(=O)[C@H](CCCNC(=N)N)NC(=O)[C@H](CCC(N)=O)NC(=O)[C@H](CC(C)C)NC(=O)[C@H](Cc1ccccc1)NC(=O)[C@H](Cc1c[nH]cn1)NC(=O)[C@H](C)NC(=O)[C@H](CC(C)C)NC(=O)[C@H](CCCNC(=N)N)NC(=O)[C@H](CCC(N)=O)NC(=O)[C@@H](NC(=O)[C@H](C)NC(=O)[C@@H]1CCCCNC(=O)C[C@H](NC(=O)[C@H](CCCNC(=N)N)NC(=O)CC[C@H](NC(=O)CCCCCCCCCCCCCCCCCCC(=O)O)C(=O)O)C(=O)NCC(=O)N[C@@H]([C@@H](C)O)C(=O)N[C@@H](C)C(=O)N[C@@H]([C@@H](C)O)C(=O)N1)[C@@H](C)O
Turning to B4, the hAMYR3 EC50 [nM] (cAMP formation, 1321N1 cells expressing hAMYR3) in assay [1] is 0.035 nM. Moreover, the hCT-R EC50 [nM] (cAMP formation, 1321N1 cells expressing hCT-R) in assay [2] is 0.043 nM.

B5: Compound 2 (peptide)
peptide: {C20 diacid-γGlu}-RDGTAT[Dab]ATERLAHFLQRSSF[Sar]A[NMeI]LSSTEVGSNT[Hyp]-NH2
modifications: lactam 2-7
SMILES: CC[C@H](C)[C@@H](C(=O)N[C@@H](CC(C)C)C(=O)N[C@@H](CO)C(=O)N[C@@H](CO)C(=O)N[C@H](C(=O)N[C@@H](CCC(=O)O)C(=O)N[C@H](C(=O)NCC(=O)N[C@@H](CO)C(=O)N[C@@H](CC(N)=O)C(=O)N[C@H](C(=O)N1C[C@H](O)C[C@H]1C(N)=O)[C@@H](C)O)C(C)C)[C@@H](C)O)N(C)C(=O)[C@H](C)NC(=O)CN(C)C(=O)[C@H](Cc1ccccc1)NC(=O)[C@H](CO)NC(=O)[C@H](CO)NC(=O)[C@H](CCCNC(=N)N)NC(=O)[C@H](CCC(N)=O)NC(=O)[C@H](CC(C)C)NC(=O)[C@H](Cc1ccccc1)NC(=O)[C@H](Cc1c[nH]cn1)NC(=O)[C@H](C)NC(=O)[C@H](CC(C)C)NC(=O)[C@H](CCCNC(=N)N)NC(=O)[C@H](CCC(=O)O)NC(=O)[C@@H](NC(=O)[C@H](C)NC(=O)[C@@H]1CCNC(=O)C[C@H](NC(=O)[C@H](CCCNC(=N)N)NC(=O)CC[C@H](NC(=O)CCCCCCCCCCCCCCCCCCC(=O)O)C(=O)O)C(=O)NCC(=O)N[C@@H]([C@@H](C)O)C(=O)N[C@@H](C)C(=O)N[C@@H]([C@@H](C)O)C(=O)N1)[C@@H](C)O
On to B5, for which, in assay [1], the hAMYR3 EC50 [nM] (cAMP formation, 1321N1 cells expressing hAMYR3) worked out at 0.032 nM. The hCT-R EC50 [nM] (cAMP formation, 1321N1 cells expressing hCT-R) in assay [2] is 0.105 nM.

B6: Compound 13 (peptide)
peptide: {C20 diacid-γGlu}-RDGTLTKATERLAHFLQRSSF[Sar]A[NMeI]LSSTEVGSNT[Hyp]-NH2
modifications: lactam 2-7
SMILES: CC[C@H](C)[C@@H](C(=O)N[C@@H](CC(C)C)C(=O)N[C@@H](CO)C(=O)N[C@@H](CO)C(=O)N[C@H](C(=O)N[C@@H](CCC(=O)O)C(=O)N[C@H](C(=O)NCC(=O)N[C@@H](CO)C(=O)N[C@@H](CC(N)=O)C(=O)N[C@H](C(=O)N1C[C@H](O)C[C@H]1C(N)=O)[C@@H](C)O)C(C)C)[C@@H](C)O)N(C)C(=O)[C@H](C)NC(=O)CN(C)C(=O)[C@H](Cc1ccccc1)NC(=O)[C@H](CO)NC(=O)[C@H](CO)NC(=O)[C@H](CCCNC(=N)N)NC(=O)[C@H](CCC(N)=O)NC(=O)[C@H](CC(C)C)NC(=O)[C@H](Cc1ccccc1)NC(=O)[C@H](Cc1c[nH]cn1)NC(=O)[C@H](C)NC(=O)[C@H](CC(C)C)NC(=O)[C@H](CCCNC(=N)N)NC(=O)[C@H](CCC(=O)O)NC(=O)[C@@H](NC(=O)[C@H](C)NC(=O)[C@@H]1CCCCNC(=O)C[C@H](NC(=O)[C@H](CCCNC(=N)N)NC(=O)CC[C@H](NC(=O)CCCCCCCCCCCCCCCCCCC(=O)O)C(=O)O)C(=O)NCC(=O)N[C@@H]([C@@H](C)O)C(=O)N[C@@H](CC(C)C)C(=O)N[C@@H]([C@@H](C)O)C(=O)N1)[C@@H](C)O
On to B6, for which the hAMYR3 EC50 [nM] (cAMP formation, 1321N1 cells expressing hAMYR3) in assay [1] is 0.456 nM. In assay [2], the hCT-R EC50 [nM] (cAMP formation, 1321N1 cells expressing hCT-R) came to 1.41 nM.

B7: Compound 12 (peptide)
peptide: {C20 diacid-γGlu}-RDGEATKATERLAHFLQRSSF[Sar]A[NMeI]LSSTEVGSNT[Hyp]-NH2
modifications: lactam 2-7
SMILES: CC[C@H](C)[C@@H](C(=O)N[C@@H](CC(C)C)C(=O)N[C@@H](CO)C(=O)N[C@@H](CO)C(=O)N[C@H](C(=O)N[C@@H](CCC(=O)O)C(=O)N[C@H](C(=O)NCC(=O)N[C@@H](CO)C(=O)N[C@@H](CC(N)=O)C(=O)N[C@H](C(=O)N1C[C@H](O)C[C@H]1C(N)=O)[C@@H](C)O)C(C)C)[C@@H](C)O)N(C)C(=O)[C@H](C)NC(=O)CN(C)C(=O)[C@H](Cc1ccccc1)NC(=O)[C@H](CO)NC(=O)[C@H](CO)NC(=O)[C@H](CCCNC(=N)N)NC(=O)[C@H](CCC(N)=O)NC(=O)[C@H](CC(C)C)NC(=O)[C@H](Cc1ccccc1)NC(=O)[C@H](Cc1c[nH]cn1)NC(=O)[C@H](C)NC(=O)[C@H](CC(C)C)NC(=O)[C@H](CCCNC(=N)N)NC(=O)[C@H](CCC(=O)O)NC(=O)[C@@H](NC(=O)[C@H](C)NC(=O)[C@@H]1CCCCNC(=O)C[C@H](NC(=O)[C@H](CCCNC(=N)N)NC(=O)CC[C@H](NC(=O)CCCCCCCCCCCCCCCCCCC(=O)O)C(=O)O)C(=O)NCC(=O)N[C@@H](CCC(=O)O)C(=O)N[C@@H](C)C(=O)N[C@@H]([C@@H](C)O)C(=O)N1)[C@@H](C)O
B7: the hAMYR3 EC50 [nM] (cAMP formation, 1321N1 cells expressing hAMYR3) in assay [1] was 0.999 nM. Moreover, in assay [2], the hCT-R EC50 [nM] (cAMP formation, 1321N1 cells expressing hCT-R) was 0.893 nM.
